{
  "source": "the DeepSol protein solubility set",
  "data": [
    {"test": "soluble on expression in E. coli; label from the status in PepcDB or PDB records", "values": [
      {"sequence": "MVIGQKVLLARIPKMGDNYSTYLLDIEGTVCPISFVKETLFPYFTNKVPQLVQQDTRDSPVSNILSQFHIDNKEQLQAHILELVAKDVKDPILKQLQGYVWAHGYESGQIKAPVYADAIDFIKRKKRVFIYSSGSVKAQKLLFGYVQDPNAPAHDSLDLNSYIDGYFDINTSGKKTETQSYANILRDIGAKASEVLFLSDNPLELDAAAGVGIATGLASRPGNAPVPDGQKYQVYKNFETL", "soluble on expression in E. coli": "not soluble"},
      {"sequence": "MVIRMAYSELYWQKEEVMPKKELEELQLKRLRWVVRHAYENVAHYRRKLKEAGVHPDDIKKREDIAKIPFTTKKDFAENYPFGLFAVPKEEIVRLHTSSGTTGKPKVVGYTANDLENWINLVARCLYMVGVRKHDIFQNMANYAFFTGGLGIHDGAERIGAMVIPAGVGNTERQVRCMADFGTTAIHSTPSYALHVKEVAEELGVDDKLSLRIGCFGAEPWSENTRKRLEDAFNIKAFDSYGLSEMNGPGVAFECEEQHGLHIWADHYFIEIIDPQTGEPLSEGEKGELVLTPLTKEALPVLRYRTGDITYIMDDECSCGRTHPKIHRILGRSDDMIIVRGINVFPSQIEHVLMQIPEVGDHFQVVITRNGTLDEITVRVEVRDELFTGELFDLQRLQQKVQRELQKELGLRTNVELVEKGTIERSKGKAKRVLDLREEL", "soluble on expression in E. coli": "not soluble"},
      {"sequence": "MVISMSDLTFEDVKKEISALDKLSDLEAKKYADTGGYADVIARANNLKTTQLRKFFSAIRSMEKKADSWKSIEADFYLLKPQLANARGRDLIPEGFYEVMKKMMDKVDRGDDDEKIENFRVFVRFLESIVAYHKFYNPRS", "soluble on expression in E. coli": "not soluble"},
      {"sequence": "MVITDTAAWVQSQSRSIVDFISAPNSNSSLPPYVQIGAAAAVTMGLGYYLSKSSSSTSGSYSFSGVTYSGNVKPLVDPMNQSRILPDGSRISAYLKDDELQAFLFEDARTLYQGVRRGARLSNNGPMLGRRVKQSDGSIPYVWESYNTILERADNVSVAFRELGVPTGNAENIGIYSKNRAEWIITEFATYNYSNVIVPIYETLGSEASIFILNQAEIKIVVCDDISKATGLLKFKEQCPSLSTLVVMEPVTDELKTTASSLGVEVLTFEDLEKIGKNAKTRPAHIPPTPEDLATICYTSGTTGTPKGVMLTHANVIADGVCMDFFKHSGIAATDSMISFLPLAHMLERVIESVCFCVGAKVGFYRGDIRVLAEDIKELKPTVVPVVPRVLNRLYDKVMSEVNKSTLKKMLFDFAISYKARDMANFNIRNDGFFDNLVFKKIREGFGGRVRLMITGSAPLSTNVLTFVRAAMGCVVVEGYGQTECVAACTVSMEGDSLAGHVGMVIPSCQIKLVDVPELNYYAKDQAGEVCVKGHIIFKGYYKNEQQTKETIDEDGWLHTGDIGRWTPEGTLKIVDRKKHIFKLSQGEYVAPEKIENIYVRSKYVAQSFVHGESLKTCLIAIVVPDAEVLVPAMADQGIKGTFEELCNNDAVKKAILDDMVAVGKKAGLFSFEQVRDISLSAEQFSVENDLLTPTLKSKRPKLKAHYSKQLDAMYSKLP", "soluble on expression in E. coli": "not soluble"},
      {"sequence": "MVITKIVGHIDDLSHQIKKVDWLEVEWEDLNKRILRKETENGTDIAIKLENSGTLRYGDVLYESDDTLIAIRTKLEKVYVIKPQTMQEMGKMAFEIGNRHTMCIIEDDEILVRYDKTLEKLIDEVGVSYEQSERRFKEPFKYRGHQH", "soluble on expression in E. coli": "soluble"},
      {"sequence": "MVKAISTEKDLLLKVDKSFPWETFRSKLKSLYSKKPKWNVISLLKVLLIKLIFDISWNNLEGEIRDSKMFMDFLGGKIPPKSTVFSFYKKLQQTVIQEGETMRTTLMDELNKALDKAISEYREKGFELEVGREKKTEKVSKGTYPPKIDTFLPVKPYPREKRSLSKTGSLEHHHHHH", "soluble on expression in E. coli": "soluble"},
      {"sequence": "MVKKAAATSKQATYHSDEIEMKEEVVLNTYDECTDYVEYDDTKQFDINEYCDQIQVAMVNESDDGMTLEFDITRIEAPIANALRRVLIAEVPTMALEKIYLYQNTSVIQDEVLCHRLGLLPLRVDPRGFQFPKEKVVGINEKGVDCDEEPEGDPAKNLIFKINVSCTKNRNAVPTATDPKQLYHNSSVYSRAFEWVPIADQKTQFTEEAHPRMVSDDILVAKLRPGQEIEASCHAVKGIGRDHAKFSPVATASYRLLPTIRLNAEISGEAAERLKSVFSEGVIAIEKKGAKRIAVVKDARKDTCSRNVFRHEDLSKVVQLGKNKQHFIFSVESTGALKSSELVVEACKVMEIKCRSLRKQIEALIQ", "soluble on expression in E. coli": "not soluble"},
      {"sequence": "MVKKITVYTAFGQFLKMVELQMEQEMEKMNEIETDKLPIDHQLSDYQNNIESGNDRQVQSCPVDVSIPKEVMKCASCPLLCFNCSVQMPVSPVPTTIESRKINETTQLMMEFWKIVASKSEEEKLPSLFENVEGLFSVPFSTFGTWDDDTLSGVTSLNFEKSDEQLSEQDDDKTTVWSSNFPSAHVLTVYENSEQKTDEMADDEMSDTTSSFLSTLSTTMSAQVPALHLLQRVQLQRSVIKKQKKIIDSFSELQNLNKKLADLRKKHRD", "soluble on expression in E. coli": "not soluble"},
      {"sequence": "MVKKVLLINGPNLNLLGTREPEKYGTTSLSDIEQAAIEQAKLKNNDSEVLVFQSNTEGFIIDRIHEAKRQGVGFVVINAGAYTHTSVGIRDALLGTAIPFIEVHITNVHQREPFRHQSYLSDKAVAVICGLGVYGYTAAIEYALNY", "soluble on expression in E. coli": "soluble"},
      {"sequence": "MVKPMHLFAVVDALEQAQQFQQVLASRDVSTELVQIEQLNARFLRHHPELALCVDLDGLWLSANGMKMQPDWQAEIPRLKRASLKSEMIARACQINEQPSLIDATAGLGHDSLLMAYLGAHVTLVERHPVLFTLLEDAKSKAENDPFLSKYMQRIHLIFQDAHYYLQQCNQDDRKVDVIYLDPMFPQRDQHHQVIKKQAQVKKQMQLLHLLLPEDGEMDLGDQLLPLAQQIASRVVVKRPKHAVFLNEQQPDHQWQGDACRFDAYFQISM", "soluble on expression in E. coli": "not soluble"},
      {"sequence": "MVLADLGRKIRNAIGKLGQSTVINEGELDLMLKEVCTALIESDVHIRLVKQLKDNVKKAINFEEIVGGANKRRYIQKTVFNELLKLVDPGVTPFTPTKGRRNVFMFVGLQGSGKTTTCTKMAYYYQRKGWKTCLICADTFRAGAFDQLKQNATKARIPFYGSYSEIDPVKIAAEGVEKFTQEGFEIIIVDTSGRHKQEASLFEEMLQVSNAVTPDNVVFVMDASIGQACEAQARAFSQTVDVASVIITKLDSHAKGGGALSAVAVTKSPVIFIGTGEHIDDFEIFKPKSFVQKLLGMGDIAGLVDMVNDIGIQDNKELVGRLKQGQFTLRDMYEQFQNIMKMGPFSQIMGMIPGFGSEFMTKGNEQESVNRLKRMMTVMDSMSDKELDHPKASELFTKEPNRVARVARGSGSHQQEVRDLLAQYKKFSDVVKKIGSIKGLFNGKNGDINPKNMNPAKMAQLNQQMAKMMDPRVLQQMGGMGGLQNMMQQMARAGKM", "soluble on expression in E. coli": "not soluble"},
      {"sequence": "MVLLLRYRSLTINLTPLIPKSQKFHTLQSFRNPNFISIPKISASTNNPTTTTNRSISDATKFAKSVLFIPPGVEIEELTDDMVLPGSNIVIGPFAGHSQIKEVEFVKSSARARDCPKDDRPEIAILGRSNVGKSSLINCLVRKKEVALTSKKPGKTQLINHFLVNKSWYIVDLPGYGFAKVSDAAKTDWSAFTKGYFLNRDSLVCVLLLIDASVPPQKIDLDCANWLGRNNVPMTFVFTKCDKMKATKGKRPDENIKAFQQIIRENFKVHPPWILTSSVSGLGRDELLLHMSQLRNYWDQ", "soluble on expression in E. coli": "not soluble"},
      {"sequence": "MVLSHAVSESDVSVHSTFASRYVRTSLPRFKMPENSIPKEAAYQIINDELMLDGNPRLNLASFVTTWMEPECDKLIMSSINKNYVDMDEYPVTTELQNRCVNMIAHLFNAPLEEAETAVGVGTVGSSEAIMLAGLAFKRKWQNKRKAEGKPVDKPNIVTGANVQVCWEKFARYFEVELKEVKLSEGYYVMDPQQAVDMVDENTICVAAILGSTLNGEFEDVKLLNDLLVEKNKETGWDTPIHVDAASGGFIAPFLYPELEWDFRLPLVKSINVSGHKYGLVYAGIGWVIWRNKEDLPEELIFHINYLGADQPTFTLNFSKGSSQVIAQYYQLIRLGHEGYRNVMENCRENMIVLREGLEKTERFNIVSKDEGVPLVAFSLKDSSCHTEFEISDMLRRYGWIVPAYTMPPNAQHITVLRVVIREDFSRTLAERLVIDIEKVMRELDELPSRVIHKISLGQEKSESNSDNLMVTVKKSDIDKQRDIITGWKKFVADRKKTSGIC", "soluble on expression in E. coli": "soluble"},
      {"sequence": "MVLVLAEIITVGDELLTGNTVDSNSAYIAQRLTEKGFWVRRITTVGDDVKEIENAVREAISRKPEVLIISGGLGPTHDDVTMLGVANAIGRKLKLCEDCLERIKEFYEELHRKGLIDDPTLNEARKKMAYLPEGSEPLNNTEGAAPGAYVEYEGVKIFILPGMPREMKAMLESEVLPRLGERKFVQKKFLAEITDESKLAPILEDTIERFKVKIHSSPKGFGKYIGIIIFAEDDEVIGKVIRYIEGKGIKFREGW", "soluble on expression in E. coli": "soluble"},
      {"sequence": "MVNAEEQQYLNLVQYIINHGEDRPDRTGTGTLSVFAPSPLKFSLRNKTFPLLTTKRVFIRGVIEELLWFIRGETDSLKLREKNIHIWDANGSREYLDSIGLTKRQEGDLGPIYGFQWRHFGAEYIDCKTNYIGQGVDQLANIIQKIRTSPYDRRLILSAWNPADLEKMALPPCHMFCQFYVHIPSNNHRPELSCQLYQRSCDMGLGVPFNIASYALLTCMIAHVCDLDPGDFIHVMGDCHIYKDHIEALQQQLTRSPRPFPTLSLNRSITDIEDFTLDDFNIQNYHPYETIKMKMSI", "soluble on expression in E. coli": "soluble"},
      {"sequence": "MVNEYKRIVLLRGLECINKHYFSLFKSLLARDLNLERDNQEQYTTIQIANMMEEKFPADSGLGKLIEFCEEVPALRKRAEILKKERSEGETSLEKNGQEAGPATPTSTTSHMLASERGETSATQEETSTAQAGTSTAQAGTSTAQAGTSTA", "soluble on expression in E. coli": "soluble"},
      {"sequence": "MVNIPNFIDKVLSVNDTSNASLTHCIKEADIDGVIEECKDILSAQATMVEVQAPIAVCGDIHGQYTDLLRIFNRCSFPPDQNYLFLGDYVDRGRQQLEVICLLMAYKVRYPNGFFILRGNHECASINRTYGFYDECKRRYSLALYNEFQNLFNSLPLCAMISGRIFCMHGGLSPELVSWTQLAKIIRPFDPPNACLAMDLLWADPENNHTGWGKNSRGVSYIFGANVVKDFTEKMNIDLIARGHQVVQDGYEFFADKRLVTIFSAPKYCGEFDNNAGIMIVDERLIISFEILKPAMREVKIQARAAAKNKSTRSILVSSRGPKSKKG", "soluble on expression in E. coli": "not soluble"},
      {"sequence": "MVNKMDIIPEITRKSITDLINNKERIDGRSLHEFRDISIETGVISKAEGSSRVKLGNTQIIVGVKPQIGEPFPDTPEMGVILTNSELLPMASPTFEPGPPDERSVELSRVVDRCIRESRMIDLEKLCIIEGSKVWMLFLDLHIIDYDGNLFDAAVLATVAALLDTRIPAAEVEDGEVVINREKMQPLPVNRKALMCTFAKIGNEIVLDPSLEEEDILTARISIGVTEEGSICAMQKGGEGPLTRDDVLKAVSIAVEKVPQLIEYLDKSMTP", "soluble on expression in E. coli": "soluble"},
      {"sequence": "MVNKVLVANRGEIAVRIIRACKELGIPTVAIYNEVESTARHVKLADEAYMIGTDPLDTYLNKQRIINLALEVGADAIHPGYGFLAENAEFAKMCEEAGITFIGPHWKVIELMGDKARSKEVMKKAGVPVVPGSDGVLKSLEEAKALAREIGYPVLLKATAGGGGRGIRICRNEEELVKNYEQASREAEKAFGRGDLLLEKFIENPKHIEYQVLGDKHGNVIHLGERDCSIQRRNQKLVEIAPSLILTPEKREYYGNIVTKAAKEIGYYNAGTMEFIADQEGNLYFIEMNTRIQVEHPVSEMVTGIDIVKWQIKIAAGEPLTIKQEDVKFNGYAIECRINAEDPKKNFAPSTRVIERYYVPGGFGIRVEHAAARGFEVTPYYDSMIAKLITWAPTWDEAVERMRAALETYEITGVKTTIPLLINIMKEKDFKAGKFTTKYLEEHPEVFEYEE", "soluble on expression in E. coli": "soluble"},
      {"sequence": "MVNLANVLTNATAATLSAWSNTVPLETYFHFDEASGFGDYYLNVSVIWMNETLYETRIVPAIINVREWLDHMEANDPSPSVTNPYETSGYYAFSTVVPVLMGNMKVA", "soluble on expression in E. coli": "not soluble"}
    ]}
  ]
}
